Data as given in publication PMC8231827, “A Novel Protein–Protein Interaction between RSK3 and IκBα and a New Binding Inhibitor That Suppresses Breast Cancer Tumorigenesis” (Cancers, 2021).

Molecular target: T1, pBIND-IκBα (GAL4 DNA-binding domain fusion of IκBα) (UniProt P25963 1-317)
T1 construct: source: HEK293T, transfected, mammalian two-hybrid fusion
T1 sequence (looked up): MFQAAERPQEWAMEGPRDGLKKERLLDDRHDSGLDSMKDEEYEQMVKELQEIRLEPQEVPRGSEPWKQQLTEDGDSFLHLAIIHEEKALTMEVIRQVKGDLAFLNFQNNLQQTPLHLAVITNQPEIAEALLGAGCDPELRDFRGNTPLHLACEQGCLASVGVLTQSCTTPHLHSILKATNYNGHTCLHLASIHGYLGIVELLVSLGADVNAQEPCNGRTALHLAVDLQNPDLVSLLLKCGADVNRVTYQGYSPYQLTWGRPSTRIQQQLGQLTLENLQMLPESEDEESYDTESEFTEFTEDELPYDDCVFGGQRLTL
Assay: two-hybrid; mammalian two-hybrid (CheckMate, Promega) in HEK293T: pBIND-IκBα (GAL4), pACT-RSK3 (VP16), pG5luc; firefly luciferase normalised to renilla, 24 h after transfection; also with RSK3I added 4 h after transfection
Conditions: partners not purified

fold luciferase activity over the pBind-IκBα vector-only control: ~3 fold
B1: pACT-RSK3 (VP16 activation domain fusion of RSK3) (natural protein, UniProt Q15349 1-733, looked up)
chain: MDLSMKKFAVRRFFSVYLRRKSRSKSSSLSRLEEEGVVKEIDISHHVKEGFEKADPSQFELLKVLGQGSYGKVFLVRKVKGSDAGQLYAMKVLKKATLKVRDRVRSKMERDILAEVNHPFIVKLHYAFQTEGKLYLILDFLRGGDLFTRLSKEVMFTEEDVKFYLAELALALDHLHSLGIIYRDLKPENILLDEEGHIKITDFGLSKEAIDHDKRAYSFCGTIEYMAPEVVNRRGHTQSADWWSFGVLMFEMLTGSLPFQGKDRKETMALILKAKLGMPQFLSGEAQSLLRALFKRNPCNRLGAGIDGVEEIKRHPFFVTIDWNTLYRKEIKPPFKPAVGRPEDTFHFDPEFTARTPTDSPGVPPSANAHHLFRGFSFVASSLIQEPSQQDLHKVPVHPIVQQLHGNNIHFTDGYEIKEDIGVGSYSVCKRCVHKATDTEYAVKIIDKSKRDPSEEIEILLRYGQHPNIITLKDVYDDGKFVYLVMELMRGGELLDRILRQRYFSEREASDVLCTITKTMDYLHSQGVVHRDLKPSNILYRDESGSPESIRVCDFGFAKQLRAGNGLLMTPCYTANFVAPEVLKRQGYDAACDIWSLGILLYTMLAGFTPFANGPDDTPEEILARIGSGKYALSGGNWDSISDAAKDVVSKMLHVDPHQRLTAMQVLKHPWVVNREYLSPNQLSRQDVHLVKGAMAATYFALNRTPQAPRLEPVLSSNLAQRRGMKRLTSTRL
notes: RSK3 (RPS6KA2) cloned into pACT; source: HEK293T, transfected, mammalian two-hybrid fusion
